Measurements: patent publication US20170267780A1

What was measured:
Fcγ IIIa (158 F) = Fcγ IIIa (158 F) (UniProt P08637); assay: effector binding, values nM, method not stated
C1q = C1q (UniProt P02745); assay: effector binding, values nM, method not stated
Fcγ IIa = Fcγ IIa (UniProt P12318); assay: effector binding, values nM, method not stated
Fcγ RIa = Fcγ RIa (UniProt P12314); assay: effector binding, values nM, method not stated
[1] = biological target: Cyno FcRn (cynomolgus monkey) (UniProt Q8SPV9); assay: SPR (ProteOn), IgG immobilised, cyno FcRn, pH 6.0
Cyno FcRn (cynomolgus monkey), sequence (Q8SPV9 24-297 limits assumed, chain 1 of 2): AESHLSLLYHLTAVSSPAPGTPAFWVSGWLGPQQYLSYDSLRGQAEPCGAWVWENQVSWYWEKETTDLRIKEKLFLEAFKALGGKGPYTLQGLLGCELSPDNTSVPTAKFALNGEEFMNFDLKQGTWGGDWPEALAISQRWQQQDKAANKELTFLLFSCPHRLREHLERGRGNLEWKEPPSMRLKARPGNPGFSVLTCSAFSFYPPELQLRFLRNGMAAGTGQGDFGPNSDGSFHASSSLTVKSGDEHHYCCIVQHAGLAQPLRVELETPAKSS
Cyno FcRn (cynomolgus monkey), sequence (Q8SPW0 21-119 limits assumed, chain 2 of 2, further chain): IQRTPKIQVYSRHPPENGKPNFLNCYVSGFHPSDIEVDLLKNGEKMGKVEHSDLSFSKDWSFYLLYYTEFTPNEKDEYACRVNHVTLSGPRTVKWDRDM

[2] = biological target: Recombinant human FcRn (human) (UniProt P55899); assay: SPR (ProteOn), IgG immobilised, pH 6.0
Recombinant human FcRn (human), sequence (P55899 24-297 limits assumed, chain 1 of 2): as the sequence (Q8SPV9 24-297 limits assumed, chain 1 of 2) above, with D39N, Q44E, S99G, G189S, N190S, M217L, T269S counted along it
Recombinant human FcRn (human), sequence (b2m, as listed by the source limits assumed, chain 2 of 2): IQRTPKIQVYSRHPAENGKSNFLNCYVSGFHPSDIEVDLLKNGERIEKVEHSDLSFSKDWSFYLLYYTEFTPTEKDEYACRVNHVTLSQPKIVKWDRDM

Fcγ IIIa (158 V) = Fcγ IIIa (158 V) (UniProt P08637); assay: effector binding, values nM, method not stated
Fcγ IIIa (158 V), sequence (P08637 17-208 F176V limits assumed): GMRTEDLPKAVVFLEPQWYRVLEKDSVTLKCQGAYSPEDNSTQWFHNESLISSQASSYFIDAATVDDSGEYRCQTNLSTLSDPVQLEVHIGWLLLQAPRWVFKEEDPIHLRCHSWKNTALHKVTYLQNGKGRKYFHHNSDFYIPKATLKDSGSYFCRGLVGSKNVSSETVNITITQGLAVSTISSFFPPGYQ

Fcγ IIb = Fcγ IIb (UniProt P31994); assay: effector binding, values nM, method not stated
Fcγ IIb, sequence (P31994 43-217 limits assumed): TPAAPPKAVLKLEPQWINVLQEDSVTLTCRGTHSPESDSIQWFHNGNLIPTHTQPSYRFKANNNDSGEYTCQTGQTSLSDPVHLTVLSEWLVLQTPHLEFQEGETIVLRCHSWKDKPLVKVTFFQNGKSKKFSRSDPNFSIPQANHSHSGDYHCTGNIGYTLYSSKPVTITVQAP

[3] = biological target: Cyno FcRn (cynomolgus monkey) (UniProt Q8SPV9); assay: SPR (ProteOn), IgG immobilised, cyno FcRn, pH 7.4
[4] = biological target: Recombinant human FcRn (human) (UniProt P55899); assay: SPR (ProteOn), IgG immobilised, pH 7.4

Fcγ IIIa (158 F), sequence (P08637 17-208 limits assumed): as the sequence (P08637 17-208 F176V limits assumed) above, with V160F counted along it
C1q, sequence (P02745 23-245, chain 1 of 3): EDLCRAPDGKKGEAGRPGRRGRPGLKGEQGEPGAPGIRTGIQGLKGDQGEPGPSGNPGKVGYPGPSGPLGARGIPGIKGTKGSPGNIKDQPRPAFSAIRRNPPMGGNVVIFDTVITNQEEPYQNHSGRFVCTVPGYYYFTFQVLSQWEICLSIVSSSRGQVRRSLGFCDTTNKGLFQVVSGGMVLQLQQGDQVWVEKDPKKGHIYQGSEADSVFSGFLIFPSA
C1q, sequence (P02746 28-253, chain 2 of 3, further chain): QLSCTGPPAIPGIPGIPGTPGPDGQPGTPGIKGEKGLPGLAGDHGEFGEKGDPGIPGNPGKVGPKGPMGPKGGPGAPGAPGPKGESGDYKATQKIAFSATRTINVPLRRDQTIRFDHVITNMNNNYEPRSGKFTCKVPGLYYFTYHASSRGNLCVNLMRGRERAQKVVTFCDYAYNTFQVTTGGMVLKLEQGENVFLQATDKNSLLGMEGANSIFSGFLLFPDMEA
C1q, sequence (P02747 29-245, chain 3 of 3, further chain): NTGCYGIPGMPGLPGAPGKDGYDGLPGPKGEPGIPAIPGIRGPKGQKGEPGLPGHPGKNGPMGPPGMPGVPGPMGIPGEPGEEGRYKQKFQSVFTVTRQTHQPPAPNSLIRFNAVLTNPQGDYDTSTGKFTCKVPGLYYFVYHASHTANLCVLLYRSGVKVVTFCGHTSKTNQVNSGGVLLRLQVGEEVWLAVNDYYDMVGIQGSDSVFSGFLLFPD
Fcγ RIa, sequence (P12314 16-288 limits assumed): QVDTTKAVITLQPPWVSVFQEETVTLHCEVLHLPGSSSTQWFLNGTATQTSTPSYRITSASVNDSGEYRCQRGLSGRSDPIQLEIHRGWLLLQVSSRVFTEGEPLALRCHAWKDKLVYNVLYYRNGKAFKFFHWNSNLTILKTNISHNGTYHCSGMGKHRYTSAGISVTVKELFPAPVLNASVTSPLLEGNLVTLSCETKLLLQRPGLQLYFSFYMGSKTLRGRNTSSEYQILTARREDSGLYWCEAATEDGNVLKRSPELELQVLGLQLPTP
Fcγ IIa, sequence (P12318 34-217 limits assumed): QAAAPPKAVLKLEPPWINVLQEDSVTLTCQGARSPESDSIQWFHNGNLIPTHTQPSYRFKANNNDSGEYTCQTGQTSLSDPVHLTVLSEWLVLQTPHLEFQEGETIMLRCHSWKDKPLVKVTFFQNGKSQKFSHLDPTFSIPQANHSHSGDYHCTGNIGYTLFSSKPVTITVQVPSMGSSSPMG

Substance | Kd (Fcγ IIIa (158 F)) [µM] | Kd (C1q) [µM] | Kd (Fcγ IIa) [µM] | Kd (Fcγ RIa) [µM] | Kd [1] [µM] | Kd [2] [µM] | Kd (Fcγ IIIa (158 V)) [µM] | Kd (Fcγ IIb) [µM] | Kd [3] [µM] | Kd [4] [µM]
Wildtype Motavizumab (antibody) | 4.14 | 0.328 | 0.506 | 0.0458 | 1.92 | – | – | – | – | –
Motavizumab YTE (antibody) | 6.06 | 0.482 | – | – | 0.275 | 0.314 | 0.245 | 1.95 | 8 | –
HB20.3 (anti-CD20) IgG1 YTE (antibody) | – | – | – | – | – | 0.215 | – | – | – | 5.8
